Source: patent publication CN113501876A (WEST CHINA HOSPITAL SICHUAN UNIV, dated 2021)

Columns and labels:
蛋白激酶p38δ (p38δ-2×Strep) = biological target: T1, 蛋白激酶p38δ (p38δ-2×Strep) (Homo sapiens (Human), UniProt O15264 1-365); experiment: indirect ELISA, p38δ coated, nanobody at 0-6.4 μM, anti-FLAG detection, 4-parameter fit
T1 construct: Expressed from pET28a-p38δ-2×Strep in E. coli BL21(DE3) and purified on MagStrep beads; The tag is placed C-terminal on the strength of the vector name only; Any further vector residues are not described; not shown: 2×Strep tag
T1 sequence: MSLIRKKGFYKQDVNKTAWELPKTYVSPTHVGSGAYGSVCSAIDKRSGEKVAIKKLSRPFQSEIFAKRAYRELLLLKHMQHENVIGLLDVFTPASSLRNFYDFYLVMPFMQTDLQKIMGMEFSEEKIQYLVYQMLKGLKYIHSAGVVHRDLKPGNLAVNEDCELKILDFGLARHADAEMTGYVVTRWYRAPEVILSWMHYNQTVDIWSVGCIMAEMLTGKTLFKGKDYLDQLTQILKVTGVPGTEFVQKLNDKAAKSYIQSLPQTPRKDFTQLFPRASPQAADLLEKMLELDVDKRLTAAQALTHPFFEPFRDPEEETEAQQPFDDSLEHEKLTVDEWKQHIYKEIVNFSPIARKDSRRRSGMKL

p38γ (p38γ-2×Strep) = biological target: T2, p38γ (p38γ-2×Strep) (Homo sapiens (Human), UniProt P53778 1-367); experiment: ELISA, p38 proteins coated on the plate, nanobody periplasmic extract, anti-FLAG detection, OD450
T2 construct: Expressed from pET28a-p38γ-2×Strep in E. coli; not shown: 2×Strep tag
T2 sequence: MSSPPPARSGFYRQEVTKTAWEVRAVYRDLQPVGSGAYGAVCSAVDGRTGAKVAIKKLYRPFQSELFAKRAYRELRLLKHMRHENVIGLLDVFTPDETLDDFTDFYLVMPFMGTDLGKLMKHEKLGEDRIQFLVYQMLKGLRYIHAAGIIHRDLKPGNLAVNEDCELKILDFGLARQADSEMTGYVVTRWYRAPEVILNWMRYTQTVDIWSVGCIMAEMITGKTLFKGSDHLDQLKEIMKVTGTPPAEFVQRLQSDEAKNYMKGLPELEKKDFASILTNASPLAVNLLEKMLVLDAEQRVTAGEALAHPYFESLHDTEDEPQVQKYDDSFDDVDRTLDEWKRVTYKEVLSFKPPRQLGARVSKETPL

B1: 纳米抗体Nb13-1 (VHH)
VHH: QVQLVESGGALVQPGGSLRLSCAASGWWGQRGWLRWYRQAPGKEREWVCGISLRRNRYSYEDSVKGRFTCSRDDARNTVYLQLNSLKPEDTAVYYCAPLSLLHDEDNHSSNYWGQGTQVTVSS
notes: Expressed from pET22b-NB-FLAG in E. coli BL21(DE3); It was used as periplasmic extract in several assays; also called 特异性结合蛋白激酶p38δ的纳米抗体; not shown: C-terminal FLAG tag fused in pET22b
In the case of B1, the Kd (蛋白激酶p38δ (p38δ-2×Strep)) is reported as 1320 nM and the binding result (p38γ (p38γ-2×Strep)) is reported as “no binding”.
